According to publication PMC7659714 (The Journal of Cell Biology, 2020):

B1: CPT1CM589S (malonyl-CoA-insensitive CPT1C) expressed in HEK cells for co-immunoprecipitation (natural protein, UniProt Q8BGD5 1-798, looked up)
chain: MAEAHQASSLLSSLSSDGAEVELSSPVWQEIYLCALRSWKRHLWRVWNDFLAGVVPATPLSWLFLFSTIQLACLLQLDPSLGLMEKIKELLPDWGGQHHQLQGFLSAAVFASCLWGALIFTLHVALRLLLSHHGWLLEPHGAMSSPTKTWLALVRIFSGRHPRLFSFQRALPRQPVPSAQETVRKYLESVRPVLGDDAFDRATALANDFLRLHAPRLQLYLQLKSWCTSNYVSDWWEEFVYLRSRGSLINSTYYMMDFLYVTPTPLQAARAGNAVHTLLLYRHLLNRQEISPTLLMGMRPLCSAQYERMFNTTRIPGVEKDHLRHLQDSRHVAVFHRGRFFRVGTHSPNGLLSPRALEQQFQDILDDPSPACPLEEHLAALTAAPRSMWAQVRESVKTHAATALEAVEGAAFFVSLDSEPAGLTREDPAASLDAYAHALLAGRGHDRWFDKSFTLIVFSNGKLGLSVEHSWADCPVSGHLWEFTLATECFQLGYATDGHCKGHPDPTLPQPQRLQWDLPEQIQPSISLALRGAKTLSGNIDCHVFPFSHFGKSFIKCCHVSSDSFIQLVLQLAHFRDRGQFCLTYESASTRLFLEGRTETVRSCTREACQFVRAMDNKETDQHCLALFRVAVDKHQALLKAAMSGQGIDRHLFALYIMSRLLHMQSPFLTQVQSQQWLLSTSQVPVQQTHLIDVHNYPDYVSSGGGFGPAHDHGYGISYIFMGENAITFHISSKKSSTETDSHRLGQHIENALLDVASLFRVGQHFKRQFRGENSDYRYNFLSCKTVDPNTPTSSTNL
B2: YFP-CPT1CM589S for FRET (natural protein, UniProt Q8BGD5 1-798, looked up)
chain: B1 chain
B3: YFP-CPT1C, wild type, for FRET (CPT1C-SYFP2) (natural protein, human, UniProt Q8TCG5 1-803, looked up)
chain: MAEAHQAVGFRPSLTSDGAEVELSAPVLQEIYLSGLRSWKRHLSRFWNDFLTGVFPASPLSWLFLFSAIQLAWFLQLDPSLGLMEKIKELLPDWGGQHHGLRGVLAAALFASCLWGALIFTLHVALRLLLSYHGWLLEPHGAMSSPTKTWLALVRIFSGRHPMLFSYQRSLPRQPVPSVQDTVRKYLESVRPILSDEDFDWTAVLAQEFLRLQASLLQWYLRLKSWWASNYVSDWWEEFVYLRSRNPLMVNSNYYMMDFLYVTPTPLQAARAGNAVHALLLYRHRLNRQEIPPTLLMGMRPLCSAQYEKIFNTTRIPGVQKDYIRHLHDSQHVAVFHRGRFFRMGTHSRNSLLSPRALEQQFQRILDDPSPACPHEEHLAALTAAPRGTWAQVRTSLKTQAAEALEAVEGAAFFVSLDAEPAGLTREDPAASLDAYAHALLAGRGHDRWFDKSFTLIVFSNGKLGLSVEHSWADCPISGHMWEFTLATECFQLGYSTDGHCKGHPDPTLPQPQRLQWDLPDQIHSSISLALRGAKILSENVDCHVVPFSLFGKSFIRRCHLSSDSFIQIALQLAHFRDRGQFCLTYESAMTRLFLEGRTETVRSCTREACNFVRAMEDKEKTDPQCLALFRVAVDKHQALLKAAMSGQGVDRHLFALYIVSRFLHLQSPFLTQVHSEQWQLSTSQIPVQQMHLFDVHNYPDYVSSGGGFGPADDHGYGVSYIFMGDGMITFHISSKKSSTKTDSHRLGQHIEDALLDVASLFQAGQHFKRRFRGSGKENSRHRCGFLSRQTGASKASMTSTDF
B4: CPT1CΔCterm-FLAG (truncated CPT1C, last 39 aa replaced by FLAG) expressed in HEK cells for co-immunoprecipitation (domain or fragment, UniProt Q8BGD5 1-759, looked up)
chain: MAEAHQASSLLSSLSSDGAEVELSSPVWQEIYLCALRSWKRHLWRVWNDFLAGVVPATPLSWLFLFSTIQLACLLQLDPSLGLMEKIKELLPDWGGQHHQLQGFLSAAVFASCLWGALIFTLHVALRLLLSHHGWLLEPHGAMSSPTKTWLALVRIFSGRHPRLFSFQRALPRQPVPSAQETVRKYLESVRPVLGDDAFDRATALANDFLRLHAPRLQLYLQLKSWCTSNYVSDWWEEFVYLRSRGSLINSTYYMMDFLYVTPTPLQAARAGNAVHTLLLYRHLLNRQEISPTLLMGMRPLCSAQYERMFNTTRIPGVEKDHLRHLQDSRHVAVFHRGRFFRVGTHSPNGLLSPRALEQQFQDILDDPSPACPLEEHLAALTAAPRSMWAQVRESVKTHAATALEAVEGAAFFVSLDSEPAGLTREDPAASLDAYAHALLAGRGHDRWFDKSFTLIVFSNGKLGLSVEHSWADCPVSGHLWEFTLATECFQLGYATDGHCKGHPDPTLPQPQRLQWDLPEQIQPSISLALRGAKTLSGNIDCHVFPFSHFGKSFIKCCHVSSDSFIQLVLQLAHFRDRGQFCLTYESAMTRLFLEGRTETVRSCTREACQFVRAMDNKETDQHCLALFRVAVDKHQALLKAAMSGQGIDRHLFALYIMSRLLHMQSPFLTQVQSQQWLLSTSQVPVQQTHLIDVHNYPDYVSSGGGFGPAHDHGYGISYIFMGENAITFHISSKKSSTETDSHRLGQHIENALLDVASL

Tests used:
[1] = biological target: T1, GluA1 expressed in HEK cells (mTurquoise2-GluA1) (mouse, UniProt P23818 19-907); experiment: co-IP
T1 sequence (P23818 19-907): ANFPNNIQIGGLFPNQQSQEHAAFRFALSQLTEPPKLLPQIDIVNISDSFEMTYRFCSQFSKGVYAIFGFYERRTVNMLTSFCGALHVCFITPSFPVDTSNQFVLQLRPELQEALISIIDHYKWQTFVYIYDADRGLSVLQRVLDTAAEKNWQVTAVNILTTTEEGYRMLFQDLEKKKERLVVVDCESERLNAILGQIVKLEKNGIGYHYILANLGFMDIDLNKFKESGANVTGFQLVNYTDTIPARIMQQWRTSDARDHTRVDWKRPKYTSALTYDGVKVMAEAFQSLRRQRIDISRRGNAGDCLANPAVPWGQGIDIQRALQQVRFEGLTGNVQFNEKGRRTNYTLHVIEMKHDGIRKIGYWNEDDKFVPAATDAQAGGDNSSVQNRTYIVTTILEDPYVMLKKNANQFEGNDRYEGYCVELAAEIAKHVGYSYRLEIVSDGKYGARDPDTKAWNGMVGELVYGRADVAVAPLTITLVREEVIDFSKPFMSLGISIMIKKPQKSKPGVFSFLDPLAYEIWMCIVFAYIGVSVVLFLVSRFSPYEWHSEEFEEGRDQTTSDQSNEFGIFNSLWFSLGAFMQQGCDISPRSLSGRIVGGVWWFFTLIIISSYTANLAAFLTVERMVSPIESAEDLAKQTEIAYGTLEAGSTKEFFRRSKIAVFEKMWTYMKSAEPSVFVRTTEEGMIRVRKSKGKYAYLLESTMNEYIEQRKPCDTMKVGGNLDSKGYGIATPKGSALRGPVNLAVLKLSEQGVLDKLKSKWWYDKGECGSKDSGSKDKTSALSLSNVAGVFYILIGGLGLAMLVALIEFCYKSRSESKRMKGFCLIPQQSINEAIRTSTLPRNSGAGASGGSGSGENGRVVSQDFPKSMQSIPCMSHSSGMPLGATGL

[2] = biological target: T1, GluA1 expressed in HEK cells …; experiment: FRET or BRET

| coimmunoprecipitated CPT1C versus immunoprecipitated GluA1, relative to WT CPT1C [1] | percentage of FRET efficiency [2] | Binder |
| --- | --- | --- |
| 0.85 ratio to GluA1 + WT CPT1C (1.00) |  | B1 |
|  | 9.51% | B2 |
|  | 8.7% | B3 |
| 0.12 ratio to GluA1 + WT CPT1C (1.00) |  | B4 |
